Source: patent publication US7115262

Legend:
[1] = target: HIV-1 Env (LAV) (HIV-1 (LAV)) (UniProt P03377); experiment: cell-based or functional assay
[2] = target: wildtype (WT) SF162 Env (HIV-1 (SF162)) (UniProt P19550); experiment: cell-based or functional assay

Row | % control, Standard Assay (CXCR4 and CD4 on target cells), 17b at 0.1 µg/ml [1] | % control, Standard Assay (CXCR4 and CD4 on target cells), 17b at 0.5 µg/ml [1] | % control, Standard Assay (CXCR4 and CD4 on target cells), 17b at 1 µg/ml [1] | % control, Standard Assay (CXCR4 and CD4 on target cells), 17b at 5 µg/ml [1] | % control, sCD4 Assay (CXCR4 alone on target cells, 200 nM soluble CD4 added), 17b at 0.1 µg/ml [1] | % control, sCD4 Assay (CXCR4 alone on target cells, 200 nM soluble CD4 added), 17b at 0.5 µg/ml [1] | % control, sCD4 Assay (CXCR4 alone on target cells, 200 nM soluble CD4 added), 17b at 1 µg/ml [1] | % control, sCD4 Assay (CXCR4 alone on target cells, 200 nM soluble CD4 added), 17b at 5 µg/ml [1] | β-gal, Standard Assay (CXCR4 and CD4 on target cells), 17b at 0.1 µg/ml [1] | β-gal, Standard Assay (CXCR4 and CD4 on target cells), 17b at 0.5 µg/ml [1] | β-gal, Standard Assay (CXCR4 and CD4 on target cells), 17b at 1 µg/ml [1] | β-gal, Standard Assay (CXCR4 and CD4 on target cells), 17b at 5 µg/ml [1] | β-gal, sCD4 Assay (CXCR4 alone on target cells, 200 nM soluble CD4 added), 17b at 0.1 µg/ml [1] | β-gal, sCD4 Assay (CXCR4 alone on target cells, 200 nM soluble CD4 added), 17b at 0.5 µg/ml [1] | β-gal, sCD4 Assay (CXCR4 alone on target cells, 200 nM soluble CD4 added), 17b at 1 µg/ml [1] | β-gal, sCD4 Assay (CXCR4 alone on target cells, 200 nM soluble CD4 added), 17b at 5 µg/ml [1] | Substance | β-gal activity, vaccinia-based reporter gene cell fusion assay, +sCD4 (100 nM), CCR5 target cells without CD4; WT Env duplicate [2] | β-gal activity, vaccinia-based reporter gene cell fusion assay, +sCD4 (100 nM), CCR5 target cells without CD4; WT Env mean [2]
1 | 93.4 % control | 104 % control | 94.1 % control | 119 % control | 114 % control | 39.2 % control | 14.1 % control | 0 % control | 39.5 | 43.9 | 39.8 | 50.5 | 13.6 | 4.66 | 1.68 | 0 | MAb 17b (antibody) |  | 
2 |  |  |  |  |  |  |  |  |  |  |  |  |  |  |  |  | soluble CD4 (from UniProt P01730 26-208) (receptor) | 6.6 | 5.9
